Biological target: FRMPD2_3, Q68DX3
Experiment: holdup assay
Set-up: key: below the threshold = too weak to quantify, mostly under pKd 3.1 to 4
Details: plain residues with an end cap or a label only (N-terminal biotin on a linker: ado-ado)

FRMPD2_3, Q68DX3, sequence (Q68DX3 1073-1166): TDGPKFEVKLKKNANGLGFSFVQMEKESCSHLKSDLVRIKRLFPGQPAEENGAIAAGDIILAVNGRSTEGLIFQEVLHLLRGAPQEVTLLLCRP

Binder | pKd
NSTHNLKDYV [CLDN20, P56880] | below the threshold
DLLGGGSDSI [TNRC6B, Q9UPQ9] | 3.51

Biological target: FRMPD4, Q14CM0
Experiment: holdup assay
Set-up: key: below the threshold = too weak to quantify, mostly under pKd 3.1 to 4
Details: plain residues with an end cap or a label only (N-terminal biotin on a linker: ado-ado)

FRMPD4, Q14CM0, sequence (Q14CM0 67-160): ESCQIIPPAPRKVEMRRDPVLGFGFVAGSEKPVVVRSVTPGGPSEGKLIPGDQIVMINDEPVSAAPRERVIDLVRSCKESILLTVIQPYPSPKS

Binder | pKd
NSTHNLKDYV [CLDN20, P56880] | below the threshold
DLLGGGSDSI [TNRC6B, Q9UPQ9] | 3.56

Biological target: T1, MPP7, Q5T2T1
T1 sequence (Q5T2T1 134-230, limits assumed, looked up): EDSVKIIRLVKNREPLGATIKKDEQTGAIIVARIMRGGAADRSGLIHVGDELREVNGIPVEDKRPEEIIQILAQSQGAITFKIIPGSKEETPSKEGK
Experiment: holdup assay
Set-up: key: below the threshold = too weak to quantify, mostly under pKd 3.1 to 4
Details: plain residues with an end cap or a label only (N-terminal biotin on a linker: ado-ado)

Binder | pKd
NSTHNLKDYV [CLDN20, P56880] | below the threshold
DLLGGGSDSI [TNRC6B, Q9UPQ9] | below the threshold

Biological target: T2, DFNB31_2, Q9P202
T2 sequence (Q9P202 274-371, limits assumed, looked up): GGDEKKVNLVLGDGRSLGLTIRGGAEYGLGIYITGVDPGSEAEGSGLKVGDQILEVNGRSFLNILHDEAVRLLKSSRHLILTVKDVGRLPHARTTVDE
Experiment: holdup assay
Set-up: key: below the threshold = too weak to quantify, mostly under pKd 3.1 to 4
Details: plain residues with an end cap or a label only (N-terminal biotin on a linker: ado-ado)

Binder | pKd
NSTHNLKDYV [CLDN20, P56880] | below the threshold
DLLGGGSDSI [TNRC6B, Q9UPQ9] | below the threshold

Biological target: MAGI2_5, Q86UL8
Sequence (Q86UL8 915-1017): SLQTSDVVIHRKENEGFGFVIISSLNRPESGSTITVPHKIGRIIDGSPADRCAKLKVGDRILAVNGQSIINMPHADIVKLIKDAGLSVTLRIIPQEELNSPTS
Experiment: holdup assay
Set-up: key: below the threshold = too weak to quantify, mostly under pKd 3.1 to 4
Details: plain residues with an end cap or a label only (N-terminal biotin on a linker: ado-ado)

Binder | pKd
NSTHNLKDYV [CLDN20, P56880] | below the threshold
DLLGGGSDSI [TNRC6B, Q9UPQ9] | below the threshold

Biological target: MAGI2_3, Q86UL8
Sequence (Q86UL8 600-682): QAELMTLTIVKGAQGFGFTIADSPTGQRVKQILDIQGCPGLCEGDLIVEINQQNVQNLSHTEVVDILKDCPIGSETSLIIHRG
Experiment: holdup assay
Set-up: key: below the threshold = too weak to quantify, mostly under pKd 3.1 to 4
Details: plain residues with an end cap or a label only (N-terminal biotin on a linker: ado-ado)

Binder | pKd
NSTHNLKDYV [CLDN20, P56880] | below the threshold
DLLGGGSDSI [TNRC6B, Q9UPQ9] | below the threshold

Biological target: T3, RAPGEF6, Q8TEU7
T3 sequence (Q8TEU7 525-625, limits assumed, looked up): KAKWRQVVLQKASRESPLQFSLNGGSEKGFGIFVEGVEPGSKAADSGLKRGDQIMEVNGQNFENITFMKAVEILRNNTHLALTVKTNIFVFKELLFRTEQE
Experiment: holdup assay
Set-up: key: below the threshold = too weak to quantify, mostly under pKd 3.1 to 4
Details: plain residues with an end cap or a label only (N-terminal biotin on a linker: ado-ado)

Binder | pKd
NSTHNLKDYV [CLDN20, P56880] | below the threshold
DLLGGGSDSI [TNRC6B, Q9UPQ9] | below the threshold

Biological target: NHERF4_1, Q86UT5-2
Sequence (Q86UT5 other isoform, or with tags, fused parts or gaps): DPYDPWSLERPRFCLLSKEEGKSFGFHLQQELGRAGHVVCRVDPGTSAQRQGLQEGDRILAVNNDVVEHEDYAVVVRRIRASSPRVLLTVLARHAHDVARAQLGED
Experiment: holdup assay
Set-up: key: below the threshold = too weak to quantify, mostly under pKd 3.1 to 4
Details: plain residues with an end cap or a label only (N-terminal biotin on a linker: ado-ado)

Binder | pKd
NSTHNLKDYV [CLDN20, P56880] | 3.69
DLLGGGSDSI [TNRC6B, Q9UPQ9] | 3.63

Biological target: LDB3, O75112
Sequence (O75112 1-94): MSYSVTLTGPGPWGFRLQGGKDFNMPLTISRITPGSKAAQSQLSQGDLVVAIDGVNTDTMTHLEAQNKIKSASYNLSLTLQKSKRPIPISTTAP
Experiment: holdup assay
Set-up: key: below the threshold = too weak to quantify, mostly under pKd 3.1 to 4
Details: plain residues with an end cap or a label only (N-terminal biotin on a linker: ado-ado)

Binder | pKd
NSTHNLKDYV [CLDN20, P56880] | below the threshold
DLLGGGSDSI [TNRC6B, Q9UPQ9] | below the threshold

Biological target: DLG4_3, P78352
Sequence (P78352 306-403): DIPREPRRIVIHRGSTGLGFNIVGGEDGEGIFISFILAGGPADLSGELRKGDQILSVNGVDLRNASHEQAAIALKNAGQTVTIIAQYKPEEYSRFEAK
Experiment: holdup assay
Set-up: key: below the threshold = too weak to quantify, mostly under pKd 3.1 to 4
Details: plain residues with an end cap or a label only (N-terminal biotin on a linker: ado-ado)

Binder | pKd
NSTHNLKDYV [CLDN20, P56880] | below the threshold
DLLGGGSDSI [TNRC6B, Q9UPQ9] | below the threshold

Biological target: GRIP2_6, Q9C0E4
Sequence (Q9C0E4 648-740): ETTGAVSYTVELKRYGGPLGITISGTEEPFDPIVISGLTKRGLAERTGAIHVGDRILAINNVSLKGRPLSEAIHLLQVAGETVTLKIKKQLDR
Experiment: holdup assay
Set-up: key: below the threshold = too weak to quantify, mostly under pKd 3.1 to 4
Details: plain residues with an end cap or a label only (N-terminal biotin on a linker: ado-ado)

Binder | pKd
NSTHNLKDYV [CLDN20, P56880] | below the threshold
DLLGGGSDSI [TNRC6B, Q9UPQ9] | below the threshold

Biological target: CASK, O14936
Sequence (O14936 487-570): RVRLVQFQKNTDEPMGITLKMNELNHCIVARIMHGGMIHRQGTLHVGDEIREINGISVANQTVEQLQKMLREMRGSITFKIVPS
Experiment: holdup assay
Set-up: key: below the threshold = too weak to quantify, mostly under pKd 3.1 to 4
Details: plain residues with an end cap or a label only (N-terminal biotin on a linker: ado-ado)

Binder | pKd
NSTHNLKDYV [CLDN20, P56880] | below the threshold
DLLGGGSDSI [TNRC6B, Q9UPQ9] | below the threshold

Biological target: HTRA2, O43464
Sequence (O43464 355-458): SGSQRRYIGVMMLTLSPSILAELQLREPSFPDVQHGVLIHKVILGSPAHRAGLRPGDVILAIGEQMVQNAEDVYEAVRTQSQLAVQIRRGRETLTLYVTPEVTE
Experiment: holdup assay
Set-up: key: below the threshold = too weak to quantify, mostly under pKd 3.1 to 4
Details: plain residues with an end cap or a label only (N-terminal biotin on a linker: ado-ado)

Binder | pKd
NSTHNLKDYV [CLDN20, P56880] | below the threshold
DLLGGGSDSI [TNRC6B, Q9UPQ9] | below the threshold

Biological target: T4, GRIP1_2, Q9Y3R0
T4 sequence (Q9Y3R0 145-248, limits assumed, looked up): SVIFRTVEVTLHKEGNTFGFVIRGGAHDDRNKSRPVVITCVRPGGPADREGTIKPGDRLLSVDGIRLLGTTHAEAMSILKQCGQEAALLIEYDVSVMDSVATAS
Experiment: holdup assay
Set-up: key: below the threshold = too weak to quantify, mostly under pKd 3.1 to 4
Details: plain residues with an end cap or a label only (N-terminal biotin on a linker: ado-ado)

Binder | pKd
NSTHNLKDYV [CLDN20, P56880] | below the threshold
DLLGGGSDSI [TNRC6B, Q9UPQ9] | below the threshold

Biological target: T5, MPDZ_5, O75970
T5 sequence (O75970 695-796, limits assumed, looked up): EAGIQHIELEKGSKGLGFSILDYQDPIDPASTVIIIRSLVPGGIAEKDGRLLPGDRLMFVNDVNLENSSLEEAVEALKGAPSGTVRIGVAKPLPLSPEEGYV
Experiment: holdup assay
Set-up: key: below the threshold = too weak to quantify, mostly under pKd 3.1 to 4
Details: plain residues with an end cap or a label only (N-terminal biotin on a linker: ado-ado)

Binder | pKd
NSTHNLKDYV [CLDN20, P56880] | below the threshold
DLLGGGSDSI [TNRC6B, Q9UPQ9] | below the threshold

Biological target: PDZRN4_1, Q6ZMN7
Sequence (Q6ZMN7 213-318): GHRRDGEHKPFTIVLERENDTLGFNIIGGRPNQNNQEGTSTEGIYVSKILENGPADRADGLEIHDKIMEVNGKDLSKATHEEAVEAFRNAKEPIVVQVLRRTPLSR
Experiment: holdup assay
Set-up: key: below the threshold = too weak to quantify, mostly under pKd 3.1 to 4
Details: plain residues with an end cap or a label only (N-terminal biotin on a linker: ado-ado)

Binder | pKd
NSTHNLKDYV [CLDN20, P56880] | below the threshold
DLLGGGSDSI [TNRC6B, Q9UPQ9] | below the threshold

Biological target: T6, MPDZ_10, O75970
T6 sequence (O75970 1624-1722, limits assumed, looked up): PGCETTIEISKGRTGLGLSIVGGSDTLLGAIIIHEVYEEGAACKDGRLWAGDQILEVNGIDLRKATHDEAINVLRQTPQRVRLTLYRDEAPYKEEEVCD
Experiment: holdup assay
Set-up: key: below the threshold = too weak to quantify, mostly under pKd 3.1 to 4
Details: plain residues with an end cap or a label only (N-terminal biotin on a linker: ado-ado)

Binder | pKd
NSTHNLKDYV [CLDN20, P56880] | below the threshold
DLLGGGSDSI [TNRC6B, Q9UPQ9] | below the threshold

Biological target: Inadl_2, Q8NI35
Sequence (Q8NI35 238-335): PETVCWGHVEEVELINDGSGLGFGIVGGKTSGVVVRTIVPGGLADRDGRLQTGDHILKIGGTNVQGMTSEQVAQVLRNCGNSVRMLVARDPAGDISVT
Experiment: holdup assay
Set-up: key: below the threshold = too weak to quantify, mostly under pKd 3.1 to 4
Details: plain residues with an end cap or a label only (N-terminal biotin on a linker: ado-ado)

Binder | pKd
NSTHNLKDYV [CLDN20, P56880] | below the threshold
DLLGGGSDSI [TNRC6B, Q9UPQ9] | below the threshold

Biological target: T7, RADIL, Q96JH8
T7 sequence (Q96JH8 971-1071, limits assumed, looked up): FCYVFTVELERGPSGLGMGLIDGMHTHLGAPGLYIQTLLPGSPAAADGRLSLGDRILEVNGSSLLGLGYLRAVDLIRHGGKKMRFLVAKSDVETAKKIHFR
Experiment: holdup assay
Set-up: key: below the threshold = too weak to quantify, mostly under pKd 3.1 to 4
Details: plain residues with an end cap or a label only (N-terminal biotin on a linker: ado-ado)

Binder | pKd
NSTHNLKDYV [CLDN20, P56880] | 3.85
DLLGGGSDSI [TNRC6B, Q9UPQ9] | below the threshold

Biological target: MAGI3_2, Q5TCQ9
Sequence (Q5TCQ9 398-503): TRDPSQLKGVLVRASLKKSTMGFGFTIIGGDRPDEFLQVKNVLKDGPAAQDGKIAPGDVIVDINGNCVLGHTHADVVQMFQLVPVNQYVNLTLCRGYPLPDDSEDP
Experiment: holdup assay
Set-up: key: below the threshold = too weak to quantify, mostly under pKd 3.1 to 4
Details: plain residues with an end cap or a label only (N-terminal biotin on a linker: ado-ado)

Binder | pKd
NSTHNLKDYV [CLDN20, P56880] | below the threshold
DLLGGGSDSI [TNRC6B, Q9UPQ9] | below the threshold

Biological target: T8, LRRC7, Q96NW7
T8 sequence (Q96NW7 1440-1537, limits assumed, looked up): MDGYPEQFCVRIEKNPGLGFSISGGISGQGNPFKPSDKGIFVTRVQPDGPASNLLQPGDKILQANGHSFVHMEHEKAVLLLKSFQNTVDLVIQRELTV
Experiment: holdup assay
Set-up: key: below the threshold = too weak to quantify, mostly under pKd 3.1 to 4
Details: plain residues with an end cap or a label only (N-terminal biotin on a linker: ado-ado)

Binder | pKd
NSTHNLKDYV [CLDN20, P56880] | below the threshold
DLLGGGSDSI [TNRC6B, Q9UPQ9] | below the threshold

Biological target: IL16_1, Q14005
Sequence (Q14005 210-306): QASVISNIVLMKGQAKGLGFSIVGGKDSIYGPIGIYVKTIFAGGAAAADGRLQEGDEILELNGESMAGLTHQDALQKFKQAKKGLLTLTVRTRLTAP
Experiment: holdup assay
Set-up: key: below the threshold = too weak to quantify, mostly under pKd 3.1 to 4
Details: plain residues with an end cap or a label only (N-terminal biotin on a linker: ado-ado)

Binder | pKd
NSTHNLKDYV [CLDN20, P56880] | below the threshold
DLLGGGSDSI [TNRC6B, Q9UPQ9] | below the threshold

Biological target: PTPN3, P26045
Sequence (P26045 505-587): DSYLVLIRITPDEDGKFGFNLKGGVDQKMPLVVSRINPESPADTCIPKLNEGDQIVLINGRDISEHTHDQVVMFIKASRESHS
Experiment: holdup assay
Set-up: key: below the threshold = too weak to quantify, mostly under pKd 3.1 to 4
Details: plain residues with an end cap or a label only (N-terminal biotin on a linker: ado-ado)

Binder | pKd
NSTHNLKDYV [CLDN20, P56880] | below the threshold
DLLGGGSDSI [TNRC6B, Q9UPQ9] | below the threshold

Biological target: T9, GRIP1_7, Q9Y3R0
T9 sequence (Q9Y3R0 999-1096, limits assumed, looked up): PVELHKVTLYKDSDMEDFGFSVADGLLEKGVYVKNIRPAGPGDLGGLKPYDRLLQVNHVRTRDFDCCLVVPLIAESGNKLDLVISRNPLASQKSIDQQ
Experiment: holdup assay
Set-up: key: below the threshold = too weak to quantify, mostly under pKd 3.1 to 4
Details: plain residues with an end cap or a label only (N-terminal biotin on a linker: ado-ado)

Binder | pKd
NSTHNLKDYV [CLDN20, P56880] | below the threshold
DLLGGGSDSI [TNRC6B, Q9UPQ9] | below the threshold

Biological target: MAST1, Q9Y2H9
Sequence (Q9Y2H9 962-1065): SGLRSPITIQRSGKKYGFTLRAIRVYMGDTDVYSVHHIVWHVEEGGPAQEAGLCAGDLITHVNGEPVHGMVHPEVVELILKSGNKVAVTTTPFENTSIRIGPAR
Experiment: holdup assay
Set-up: key: below the threshold = too weak to quantify, mostly under pKd 3.1 to 4
Details: plain residues with an end cap or a label only (N-terminal biotin on a linker: ado-ado)

Binder | pKd
NSTHNLKDYV [CLDN20, P56880] | 3.65
DLLGGGSDSI [TNRC6B, Q9UPQ9] | 3.85

Biological target: T10, MPP6, Q9NZW5
T10 sequence (Q9NZW5 125-219, limits assumed, looked up): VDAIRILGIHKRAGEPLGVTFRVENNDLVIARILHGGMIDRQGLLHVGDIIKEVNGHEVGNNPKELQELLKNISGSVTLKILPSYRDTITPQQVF
Experiment: holdup assay
Set-up: key: below the threshold = too weak to quantify, mostly under pKd 3.1 to 4
Details: plain residues with an end cap or a label only (N-terminal biotin on a linker: ado-ado)

Binder | pKd
NSTHNLKDYV [CLDN20, P56880] | below the threshold
DLLGGGSDSI [TNRC6B, Q9UPQ9] | below the threshold

Biological target: Inadl_4, Q8NI35
Sequence (Q8NI35 547-651): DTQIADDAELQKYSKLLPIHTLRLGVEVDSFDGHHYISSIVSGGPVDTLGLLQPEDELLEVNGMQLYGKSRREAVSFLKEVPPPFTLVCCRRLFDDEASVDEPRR
Experiment: holdup assay
Set-up: key: below the threshold = too weak to quantify, mostly under pKd 3.1 to 4
Details: plain residues with an end cap or a label only (N-terminal biotin on a linker: ado-ado)

Binder | pKd
NSTHNLKDYV [CLDN20, P56880] | below the threshold
DLLGGGSDSI [TNRC6B, Q9UPQ9] | below the threshold

Biological target: GIPC2, Q8TF65
Sequence (Q8TF65 112-203): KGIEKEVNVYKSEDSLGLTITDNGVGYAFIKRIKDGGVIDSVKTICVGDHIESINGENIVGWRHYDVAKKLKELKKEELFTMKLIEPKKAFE
Experiment: holdup assay
Set-up: key: below the threshold = too weak to quantify, mostly under pKd 3.1 to 4
Details: plain residues with an end cap or a label only (N-terminal biotin on a linker: ado-ado)

Binder | pKd
NSTHNLKDYV [CLDN20, P56880] | below the threshold
DLLGGGSDSI [TNRC6B, Q9UPQ9] | 3.55
